Measured values published in article PMC5070119.

Tests used:
[1] = biological target: cytosolic purine 5'-nucleotidase (cN-II) L375F, C-terminally truncated (human) (UniProt P49902); assay: SEC; Superdex 200 10/300 GL, 50 mM sodium phosphate pH 7.4, 100 mM NaCl, 2 mM TCEP; 200 ul of 0.5 mg/ml protein; calibrated with high molecular weight standards
[2] = biological target: cytosolic purine 5'-nucleotidase (cN-II) L375F, C-terminally truncated (human) (UniProt P49902); assay: SAXS; truncated proteins 0.25 to 2 mg/ml in 50 mM sodium phosphate pH 7.4, 100 mM NaCl, 2 mM TCEP, 5 % glycerol; BM29 beamline ESRF; Guinier approximation, P(r), Porod volume
[3] = biological target: cytosolic purine 5'-nucleotidase (cN-II) R367Q, C-terminally truncated (human) (UniProt P49902); assay: SEC; Superdex 200 10/300 GL, 50 mM sodium phosphate pH 7.4, 100 mM NaCl, 2 mM TCEP; 200 ul of 0.5 mg/ml protein; calibrated with high molecular weight standards
[4] = biological target: cytosolic purine 5'-nucleotidase (cN-II) R367Q, C-terminally truncated (human) (UniProt P49902); assay: SAXS; truncated proteins 0.25 to 2 mg/ml in 50 mM sodium phosphate pH 7.4, 100 mM NaCl, 2 mM TCEP, 5 % glycerol; BM29 beamline ESRF; Guinier approximation, P(r), Porod volume
[5] = biological target: cytosolic purine 5'-nucleotidase (cN-II) R238W, C-terminally truncated (human) (UniProt P49902); assay: SEC; Superdex 200 10/300 GL, 50 mM sodium phosphate pH 7.4, 100 mM NaCl, 2 mM TCEP; 200 ul of 0.5 mg/ml protein; calibrated with high molecular weight standards
[6] = biological target: cytosolic purine 5'-nucleotidase (cN-II) R238W, C-terminally truncated (human) (UniProt P49902); assay: SAXS; truncated proteins 0.25 to 2 mg/ml in 50 mM sodium phosphate pH 7.4, 100 mM NaCl, 2 mM TCEP, 5 % glycerol; BM29 beamline ESRF; Guinier approximation, P(r), Porod volume
[7] = biological target: cytosolic purine 5'-nucleotidase (cN-II), C-terminally truncated wild type (human) (UniProt P49902); assay: SEC; Superdex 200 10/300 GL, 50 mM sodium phosphate pH 7.4, 100 mM NaCl, 2 mM TCEP; 200 ul of 0.5 mg/ml protein; calibrated with high molecular weight standards
[8] = biological target: cytosolic purine 5'-nucleotidase (cN-II), C-terminally truncated wild type (human) (UniProt P49902); assay: SAXS; truncated proteins 0.25 to 2 mg/ml in 50 mM sodium phosphate pH 7.4, 100 mM NaCl, 2 mM TCEP, 5 % glycerol; BM29 beamline ESRF; Guinier approximation, P(r), Porod volume

Substance: cytosolic purine 5'-nucleotidase (cN-II) L375F, C-terminally truncated (from UniProt P49902 1-536) (enzyme)
- stoichiometry N [1]: 4
- stoichiometry N [2]: 4

Substance: cytosolic purine 5'-nucleotidase (cN-II) R367Q, C-terminally truncated (from UniProt P49902 1-536) (enzyme)
- stoichiometry N [3]: 4
- stoichiometry N [4]: 4

Substance: cytosolic purine 5'-nucleotidase (cN-II) R238W, C-terminally truncated (from UniProt P49902 1-536) (enzyme)
- stoichiometry N [5]: 4
- stoichiometry N [6]: 4

Substance: cytosolic purine 5'-nucleotidase (cN-II), C-terminally truncated wild type (from UniProt P49902 1-536) (enzyme)
- stoichiometry N [7]: 4
- stoichiometry N [8]: 4
